Test results reported in patent publication US7067713.

Molecular target: C1s (Kordia, The Netherlands/Enzyme Research Lab. Inc., USA) (UniProt P09871)
Assay: cell-based or functional assay

UniProt P09871, sequence (P09871 16-688 limits assumed): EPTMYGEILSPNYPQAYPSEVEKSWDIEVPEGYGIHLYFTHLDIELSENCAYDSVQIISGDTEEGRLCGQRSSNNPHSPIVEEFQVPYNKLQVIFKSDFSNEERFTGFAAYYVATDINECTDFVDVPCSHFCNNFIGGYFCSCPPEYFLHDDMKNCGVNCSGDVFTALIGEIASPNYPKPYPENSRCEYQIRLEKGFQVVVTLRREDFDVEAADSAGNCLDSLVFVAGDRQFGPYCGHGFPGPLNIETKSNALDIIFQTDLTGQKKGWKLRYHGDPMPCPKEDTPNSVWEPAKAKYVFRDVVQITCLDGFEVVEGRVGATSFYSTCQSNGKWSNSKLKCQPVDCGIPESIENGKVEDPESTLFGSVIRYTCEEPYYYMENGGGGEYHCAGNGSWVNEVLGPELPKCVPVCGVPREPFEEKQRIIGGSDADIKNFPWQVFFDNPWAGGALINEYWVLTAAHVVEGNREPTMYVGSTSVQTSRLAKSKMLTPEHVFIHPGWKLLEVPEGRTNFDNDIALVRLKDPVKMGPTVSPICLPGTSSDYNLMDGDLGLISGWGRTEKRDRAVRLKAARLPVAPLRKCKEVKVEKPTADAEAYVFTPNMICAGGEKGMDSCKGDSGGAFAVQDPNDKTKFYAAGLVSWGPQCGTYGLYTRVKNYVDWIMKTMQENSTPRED

functionality index (F.I.): ratio between functionally active C1 inhibitor (C1s inhibition test) and total C1 inhibitor antigen	Substance
1.07	Cetor (C1 inhibitor purified from pooled human plasma, CLB, The Netherlands) (from UniProt P05155 23-500)
1.15	recombinant human C1 inhibitor purified from milk of transgenic rabbit line 2972p (from UniProt P05155 23-500)
1.07	recombinant human C1 inhibitor purified from milk of transgenic rabbit line 2972q (from UniProt P05155 23-500)
0.91	recombinant human C1 inhibitor purified from milk of transgenic rabbit line 2977q (from UniProt P05155 23-500)
